# Data published in article doi:10.1101/2020.05.06.080432.
# B1: His6-GlnK1 (natural protein)
# chain: MVAMKYVIAMIRPERLDAVKRELQKIEVSRLTVSSVSGYGAQKGYMEIYRAMEYDANLLEKIKIEIAVNDEFLEPTIEAIKTGAKGSDGYVGSGKIFVLPLENVIRIRTNETGPEAI
# B2: His6-GlnA1 (enzyme)
# chain: MVQMKKCTTKEDVLEAVKERDVKFIRTQFTDTLGIIKSWAIPAEQLEEAFENGVMFDGSSIQGFTRIEESDMKLALDPSTFRILPWRPATGAVARILGDVYLPDGNPFKGDPRYVLKTAIKEAEKMGFSMNVGPELEFFLFKLDANGNPTTELTDQGGYFDFAPLDRAQDVRRDIDYALEHMGFQIEASHHEVAPSQHEIDFRFGDVLCTADNVVTFKYVVKSIAYHKGYYASFMPKPLFGVNGSGMHSNQSLFKDGKNVFYDPDTPTKLSQDAMYYIGGLLKHIREFTAVTNPVVNSYKRLVPGYEAPVYISWSAQNRSSLIRIPATRGNGTRIELRCPDPACNPYLAFALMLRAGLEGIKNKIDPGEPTNVNIFHLSDKEREERGIRSLPADLKEAIDEMKGSKFVKEALGEHVFSHYLCAKEMEWDEYKAVVHPWELSRYLSML
# Experiments:
# Experiment in all cases: MST
# [1] = molecular target: His6-GlnA1 (Methanosarcina mazei) (UniProt Q8PY99)
# [2] = molecular target: His6-GlnK1 (Methanosarcina mazei) (UniProt Q8PYW7)
# [3] = molecular target: synthesized sP26 (Davids Biotechnologie), nt-647-NHS-labeled (Methanosarcina mazei)
Molecule,Kd [1] [nM],Kd [2] [nM],Kd [3] [nM]
His6-sP26 (natural protein),45000,1400,
B1,,,47
B2,,,76
